For test [1], the target named is T1, amyloid β1-42 (Aβ1-42) (UniProt P05067 672-713). Briefly: cell-based or functional assay.
Test [2] addresses T1, amyloid β1-42 (Aβ1-42). Kind of test: ELISA, peptide coated at 5 µg/ml, 150 nM Aβ1-42 added, anti-Aβ antibody, A492 (FIG. 2). As to the method: (§1) BSA was from Sigma Aldrich. […] Plate coating was done at room temperature for 2 hours with shaking and then at 4° C. overnight. Plates were washed three times in PBST (PBS+0.05% tween), then blocked with 3% BSA in PBST for 1 hour at room temperature with shaking. […] Plates were then washed 4 times with PBST and monoclonal mouse anti-amyloid precursor protein/amyloid beta antibody, purchased from Cell Signaling Technology was added at a 1:500 dilution in 1% BSA in PBST and incubated for 1 hour at room temperature with shaking. Plates were washed 4× in PBST and donkey anti mouse HRP-conjugated secondary antibody from Jackson ImmunoResearch Laboratories was added at 1:10,000 in PBST and incubated 1 hour at room temperature with shaking, then washed 4 times in PBST. […] Sulfuric acid (5N) was added to each well to stop the reaction, and the absorbance at 492 nm was read on a Biotek Synergy II plate reader.

In test [3] the target is T1, amyloid β1-42 (Aβ1-42). Briefly: ELISA, peptide coated at 5 µg/ml, 150 nM Aβ1-42 added, anti-Aβ antibody, A492 (FIG. 3). How it is done:
as §1
On the technique in general: ELISA stands for enzyme-linked immunosorbent assay.

The target of test [4] is T1, amyloid β1-42 (Aβ1-42). Kind of test: ELISA, peptide coated, Aβ1-42 added (FIG. 21). As to the method:
as §1

Test [5] deals with T1, amyloid β1-42 (Aβ1-42). Kind of test: ELISA, peptide coated, Aβ1-42 added, anti-Aβ antibody, absorbance at 492 nm (FIG. 21). As to the method:
as §1

Non-standard residues stand in square brackets, D forms with d. No end group written: not given here. AEEA = NCCOCCOCC(=O)O

These results are taken from US20210115426A1 (BOARD OF REGENTS OF THE UNIVERSITY OF OKLAHOMA, published 2021).

T1 sequence (P05067 672-713 limits assumed): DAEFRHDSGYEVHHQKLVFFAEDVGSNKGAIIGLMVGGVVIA

B1: cationic antimicrobial protein of 37 kDa (CAP37), full-length (enzyme, human, UniProt P20160 27-248, looked up)
chain: IVGGRKARPRQFPFLASIQNQGRHFCGGALIHARFVMTAASCFQSQNPGVSTVVLGAYDLRRRERQSRQTFSISSMSENGYDPQQNLNDLMLLQLDREANLTSSVTILPLPLQNATVEAGTRCQVAGWGSQRSGGRLSRFPRFVNVTVTPEDQCRPNNVCTGVLTRRGGICNGDGGTPLVCEGLAHGVASFSLGPCGRGPDFFTRVALFRDWIDGVLNNPGP
Turning to B1, in the test with amyloid β1-42 (Aβ1-42) [1], the “IC50 of inhibition of Aβ1-42 fibrillation (Thioflavin T fluorescence)” value (“IC50 of inhibition … (Thioflavin T fluorescence)” below) was determined as 876 nM, the “fold increase of the fibrillation IC50 in the presence of PMSF” value was found to be 3.5 fold and the “molar ratio CAP37/Aβ1-42 at the IC50 of fibrillation” value came out at 0.091 molar ratio.

B2: CAP37-derived peptide 20-44 CC (wild-type) (peptide)
peptide: NQGRHFCGGALIHARFVMTAASCFQ
notes: also called CAP3720-44
Turning to B2, in the test with amyloid β1-42 (Aβ1-42) [2], the binding result was “binds”.

B3: 5RMP-modified CAP37-derived peptide 120-146 QR (peptide)
peptide: [AEEA][AEEA]RRRRGTRCQVAGWGSQRSGGRLSRFPRFVNVR
B3: in the test with amyloid β1-42 (Aβ1-42) [3], the binding result is “binds”.

B4: CAP37-derived peptide 120-146 WR 5RMP (peptide)
peptide: [AEEA][AEEA]RRRRGTRCQVAGWGSWRSGGRLSRFPRFVNVR
Consider B4, for which, in the test with amyloid β1-42 (Aβ1-42) [1], the “IC50 of inhibition … (Thioflavin T fluorescence)” value is around 1000 nM and the “molar ratio peptide/Aβ1-42 at the IC50 of fibrillation” value was around 0.1 molar ratio.

B5: CG-derived mutant peptide CG119-144 E141PR (peptide)
peptide: GTLCTVAGWGRVSMRRGTDTLRPRVQL
As to B5, in the test with amyloid β1-42 (Aβ1-42) [4], the binding result is on record as “binds”.

B6: 5RMP-modified CAP37-derived peptide 20-44 CC (peptide)
peptide: [AEEA][AEEA]RRRRNQGRHFCGGALIHARFVMTAASCFQR
modifications: cysteine pairing not given here
notes: also called 20-44 CC 5RMP
As to B6, the binding result with amyloid β1-42 (Aβ1-42) [3] is “binds”.

B7: cathepsin G (CG), full-length (enzyme, human, UniProt P08311 21-244, looked up)
chain: IIGGRESRPHSRPYMAYLQIQSPAGQSRCGGFLVREDFVLTAAHCWGSNINVTLGAHNIQRRENTQQHITARRAIRHPQYNQRTIQNDIMLLQLSRRVRRNRNVNPVALPRAQEGLRPGTLCTVAGWGRVSMRRGTDTLREVQLRVQRDRQCLRIFGSYDPRRQICVGDRRERKAAFKGDSGGPLLCNNVAHGIVSYGKSSGVPPEVFTRVSSFLPWIRTTMRS
In the case of B7, in the test with amyloid β1-42 (Aβ1-42) [1], the “IC50 of inhibition … (Thioflavin T fluorescence)” value came to 3.8 nM, the “fold increase of the fibrillation IC50 in the presence of chymostatin” value worked out at 17 fold and the “molar ratio CG/Aβ1-42 at the IC50 of fibrillation” value amounted to 0.00038 molar ratio.

B8: CG-derived peptide CG119-144 (wild-type) (peptide)
peptide: GTLCTVAGWGRVSMRRGTDTLREVQL
Regarding B8, the binding result in the test with amyloid β1-42 (Aβ1-42) [4] is on record as “binds”.

B9: CG-derived mutant peptide CG119-144 D137R (peptide)
peptide: GTLCTVAGWGRVSMRRGTRTLREVQL
With B9, in the test with amyloid β1-42 (Aβ1-42) [1], the “IC50 of inhibition … (Thioflavin T fluorescence)” value stood at 3100 nM and the “molar ratio peptide/Aβ1-42 at the IC50 of fibrillation” value was determined as 0.33 molar ratio.

B10: CG-derived mutant peptide CG119-144 ΔR129V130 (peptide)
peptide: GTLCTVAGWGSMRRGTDTLREVQL
For the molecule B10, the binding result with amyloid β1-42 (Aβ1-42) [5] was “no binding”.

B11: CAP37-derived peptide 120-146 QR (wild-type) (peptide)
peptide: GTRCQVAGWGSQRSGGRLSRFPRFVNV
With B11, the binding result with amyloid β1-42 (Aβ1-42) [2] is “binds”.

B12: CAP37-derived peptide 120-146 WR (mutant) (peptide)
peptide: GTRCQVAGWGSWRSGGRLSRFPRFVNV
B12: in the test with amyloid β1-42 (Aβ1-42) [1], the “IC50 of inhibition … (Thioflavin T fluorescence)” value was around 1000 nM and the “molar ratio peptide/Aβ1-42 at the IC50 of fibrillation” value is around 0.1 molar ratio.
